One assay has as its target SEMG2 (human) (UniProt Q02383). As to the kind of experiment: ELISA; negative control.
Assay [1] has as its target T1, SEMG1 recombinant protein (semenogelin-1) (human, UniProt P04279 24-462, limits assumed).
T1 construct: also called full-length SEMG1
T1 sequence (looked up): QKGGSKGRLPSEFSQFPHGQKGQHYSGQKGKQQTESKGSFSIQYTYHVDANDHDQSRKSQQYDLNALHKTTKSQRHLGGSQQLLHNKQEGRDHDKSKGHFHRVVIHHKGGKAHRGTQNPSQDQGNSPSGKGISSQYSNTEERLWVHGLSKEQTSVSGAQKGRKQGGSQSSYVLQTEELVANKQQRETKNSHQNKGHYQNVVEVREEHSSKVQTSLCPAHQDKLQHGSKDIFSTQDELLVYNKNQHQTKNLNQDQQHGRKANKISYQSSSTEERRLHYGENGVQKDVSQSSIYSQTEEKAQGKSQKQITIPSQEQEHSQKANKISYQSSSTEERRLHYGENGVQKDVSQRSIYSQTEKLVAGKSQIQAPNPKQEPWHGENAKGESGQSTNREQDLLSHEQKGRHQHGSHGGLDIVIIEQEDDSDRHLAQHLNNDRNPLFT
The assay can be described thus: ELISA; SEMG1 coated, antibody in 3-fold dilution series, goat anti-mouse HRP. As to the method: (§1) In order to identify whether the screened monoclonal antibodies with neutralizing effect can bind to SEMG1 and SEMG2 proteins, we coated SEMG2 protein diluted in carbonate buffer (Solarbio, Beijing, China) to a final concentration of 1 μg/mL on a dedicated ELISA plate (costar, ME, USA), and the binding of 1 μg/mL mouse hybridoma antibody to SEMG2 was initially tested. According to the determination outcome, the binding and binding strength between SEMG1 or SEMG2 and the purified mouse monoclonal antibody were further analyzed by ELISA experiment, and an irrelevant mouse monoclonal antibody was taken as a negative control. Specifically, a special plate for ELISA (costar, ME, USA) was used. First, different concentrations of SEMG1 or SEMG2 recombinant proteins were dissolved in 100 μL of carbonate coating buffer (Solarbio, Beijing, China) to 2 μg/mL to coat the plate, and the negative control was coated with 100 μL of coating buffer without protein. The plates were coated overnight at 4° C. […] After washing with PBST, color developing solution (Sangon, Shanghai, China) was used for color development, 100 μL per well, the plate was placed in an incubator for 5-30 minutes, and adding 50 μL of stop solution (Sangon, Shanghai, China) to stop the reaction, and then the plate was placed in a microplate reader (Thermo Fisher, MA, USA) for chromogenic reading at 450 nm.

Assay [2] concerns the target T2, S1-26 synthetic polypeptide of SEMG1 (human).
T2 construct: also called SEMG1-26
T2 peptide: KDIFSTQDELLVYNK
As to the kind of experiment: ELISA on coated peptide; antibody at 2.5 ug/mL; positive if OD ratio to blank >3. The procedure: ⅓ overlapping peptide sequences were designed, and a peptide library consisting of 45 peptides (GenScript, Nanjing) was synthesized. Peptide matrix was prepared by using a polypeptide-coated 96-well plate (Costar, Corning), and the selected monoclonal antibody was used as the primary antibody for ELISA binding test, and SEMG1 coating was set as a positive control, and BSA coating was set as a control. The ELISA procedure was performed routinely, as described in Example 2 above. For the coated polypeptide well with OD_{experimental group}/OD_{blank group}>3, it was determined as a positive reaction, which was the corresponding antibody-bound polypeptide sequence.

Assay [3] concerns the target T3, SEMG2 recombinant protein (semenogelin-2) (human, UniProt Q02383 24-582, limits assumed).
T3 construct: also called SMEG2
T3 sequence (looked up): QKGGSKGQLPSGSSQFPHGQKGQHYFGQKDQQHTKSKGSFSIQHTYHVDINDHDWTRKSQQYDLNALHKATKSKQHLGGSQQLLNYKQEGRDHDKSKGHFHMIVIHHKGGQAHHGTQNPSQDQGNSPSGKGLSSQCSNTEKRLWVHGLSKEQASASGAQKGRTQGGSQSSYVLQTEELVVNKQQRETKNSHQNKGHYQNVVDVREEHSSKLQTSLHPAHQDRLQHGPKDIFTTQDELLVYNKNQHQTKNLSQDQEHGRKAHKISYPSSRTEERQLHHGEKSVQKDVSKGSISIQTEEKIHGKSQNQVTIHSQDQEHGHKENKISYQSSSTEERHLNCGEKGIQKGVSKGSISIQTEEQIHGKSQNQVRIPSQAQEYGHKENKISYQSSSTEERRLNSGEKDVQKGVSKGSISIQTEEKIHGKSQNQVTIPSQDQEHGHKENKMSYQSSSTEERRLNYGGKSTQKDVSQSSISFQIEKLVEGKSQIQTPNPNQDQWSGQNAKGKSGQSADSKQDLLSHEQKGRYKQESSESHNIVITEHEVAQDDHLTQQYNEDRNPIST
As to the kind of experiment: ELISA; SEMG2 coated, antibody in 3-fold dilution series, goat anti-mouse HRP. As to the method: as §1

Substitutions are numbered along the chain they refer to.

With mIgG1, the EC50 with SEMG2 (human) amounted to 4.24 nM.

B1: 25-E10-F8-B5 (antibody, mouse IgG1, V domains shown)
VH: QVQLQQPGAELVKPGASVKMSCKASGYTFTSYNMHWVKQTPGQGLEWIGAIYPGNGDTSYNQKFKGKATLTADKSSSTAYMQLSSLTSEDSAVYYCASAMDYWGQGTSVTVSS
VL: SIVMTQTPLSLPVSLGDQASISCRSSQSLVHSNGNTYLQWYLQKPGQSPKLLIYKVSNRFSGVPDRFSGSGSGTDFTLKISRVEAEDLGVYFCSQSKHVPRTFGGGTKLEIK
notes: Mouse hybridoma monoclonal antibody; The V regions were re-cloned with murine IgG1 and murine kappa constant regions to verify activity
As for B1, the EC50 stood at 1.26 nM in assay [1] and 1.69 nM in assay [3]. The binding result in assay [2] is reported as “binds”.

B2: 33-B5-C1-F5 (antibody, mouse IgG1, V domains shown)
VH: B1 VH with Q1E, Q6E, P7S, G15R, T30S, V37I, K38R, G42E, N55T
VL: B1 VL with S1D, I2V, M4L, V30L, Y41F, K44R, P45S, S61Y, K97I, H98D
notes: as for B1
Regarding B2, the EC50 is 3.67 nM in assay [1] and 2.39 nM in assay [3]. For the same molecule, the binding result in assay [2] was “binds”.

For the origin of these results see US20250136711A1 (SHANGHAI BIOTROY BIOTECHNIQUE, published 2025).
